Measured values as given in publication PMC5862942, “JMJD5 is a human arginyl C-3 hydroxylase” (Nature Communications, 2018).
Where no end group is shown, it is not given here.

Target: N-terminally truncated JMJD5 (Jumonji-C domain-containing protein 5), wild type (human, UniProt Q8N371 183-416)
Test: cell-based or functional assay

Chain of N-terminally truncated JMJD5 (Jumonji-C domain-containing protein 5), wild type (Q8N371 other isoform, or with tags, fused parts or gaps): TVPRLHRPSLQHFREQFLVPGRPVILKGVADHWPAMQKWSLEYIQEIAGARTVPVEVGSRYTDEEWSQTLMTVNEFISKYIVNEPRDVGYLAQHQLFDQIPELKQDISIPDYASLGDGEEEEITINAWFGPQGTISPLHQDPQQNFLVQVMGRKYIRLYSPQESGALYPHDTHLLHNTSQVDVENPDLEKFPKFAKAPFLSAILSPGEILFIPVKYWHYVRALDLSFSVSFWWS

B1: 40S ribosomal protein S6 (RPS6) peptide, residues 129-144 (peptide)
peptide: VPRRLGPKRASRIRKL-NH2
apparent Km of the RPS6 129-144 peptide in JMJD5-catalysed Arg137 hydroxylation (MALDI-MS-based assay, 37 °C): 60.4 µM
